Results from article PMC10881741, “Structural modifications toward improved lead-203/lead-212 peptide-based image-guided alpha-particle radiopharmaceutical therapies for neuroendocrine tumors” (European Journal of Nuclear Medicine and Molecular Imaging, 2023).
Read-outs that look alike come from different tables or passages of the source.

Assays:
AR42J tumor xenograft = assay: In vivo biodistribution of ^203Pb-labeled peptides; parameters: species or system mice; conditions: DL-lysine 400 mg/kg, 3 h post-administration
Method: (§1) AR42J cells (5.0 × 10^6 cells/animal) were implanted subcutaneously on the left shoulder of female athymic nu/nu mice. […] Extra groups of mice were co-administered 37 kBq of ^203Pb-PSC-PEG2-TOC with DL-lysine (400 mg/kg) to determine the effect of amino acid on renal uptake of the radiopharmaceutical. Mice (n=3 per time point) were euthanized at 1, 3, and 24 h post-administration, and tumors and organs/tissues of interest were excised and weighed. The radioactivities of the samples were measured using the gamma counter.

[1] = In vivo biodistribution of ^203Pb-labeled peptides; parameters: species or system mice; conditions: female, athymic nu/nu, mouse, intravenous, total radioactivity
Method: as §1

## C[C@@H](O)[C@@H]1NC(=O)[C@H](CCCCN)NC(=O)[C@@H](Cc2c[nH]c3ccccc23)NC(=O)[C@H](Cc2ccc(O)cc2)NC(=O)[C@@H](NC(=O)[C@@H](Cc2ccccc2)NC(=O)CCOCCOCCNC(=O)CN2CCN(CC(=O)O)CCN(CC(N)=O)CCN(CC(=O)O)CC2)CSSC[C@@H](C(=O)N[C@H](CO)[C@@H](C)O)NC1=O [[^203Pb]Pb-PSC-PEG2-TOC, metal not drawn]
AR42J tumor xenograft
  Reduction of renal accumulation by co-administration of DL-lysine: 56%
[1]; blood, 37 kBq, 1 h post-administration, read-out: Blood
  tissue uptake at 1 h: 0.36 ± 0.1 %ID/g
[1]; blood, 37 kBq, 3 h (No Lys), Table S4 study, read-out: Blood
  tissue uptake at 3 h: 0.07 ± 0.02 %ID/g
[1]; blood, 37 kBq, 3 h post-administration, read-out: Blood
  tissue uptake at 3 h: 0.05 %ID/g
[1]; blood, 37 kBq, 24 h post-administration, read-out: Blood
  tissue uptake at 24 h: 0.02 %ID/g
[1]; blood, 1 h, DL-lysine co-administered, read-out: Blood
  tissue uptake at 1 h: 0.36 ± 0.15 %ID/g
[1]; blood, 3 h (Blocking): 10 nmol unlabeled PSC-PEG2-TOC co-administered, read-out: Blood
  tissue uptake at 3 h: 0.13 ± 0.02 %ID/g
[1]; blood, 3 h, DL-lysine co-administered, read-out: Blood
  tissue uptake at 3 h: 0.07 ± 0.02 %ID/g
[1]; blood, DL-lysine co-administered, read-out: Blood
  tissue uptake at 6 h: 0.05 ± 0.03 %ID/g
[1]; blood, 24 h, DL-lysine co-administered, read-out: Blood
  tissue uptake at 24 h: 0.01 %ID/g
[1]; bone marrow, 37 kBq, 3 h (No Lys), Table S4 study, read-out: Bone marrow
  tissue uptake at 3 h: 4.17 ± 1.51 %ID/g
[1]; bone marrow, 1 h, DL-lysine co-administered, read-out: Bone marrow
  tissue uptake at 1 h: 2.42 ± 0.32 %ID/g
[1]; bone marrow, 3 h (Blocking): 10 nmol unlabeled PSC-PEG2-TOC co-administered, read-out: Bone marrow
  tissue uptake at 3 h: 0.99 ± 0.42 %ID/g
[1]; bone marrow, 3 h, DL-lysine co-administered, read-out: Bone marrow
  tissue uptake at 3 h: 4.13 ± 1.55 %ID/g
[1]; bone marrow, DL-lysine co-administered, read-out: Bone marrow
  tissue uptake at 6 h: 1.69 ± 0.34 %ID/g
[1]; bone marrow, 24 h, DL-lysine co-administered, read-out: Bone marrow
  tissue uptake at 24 h: 0.87 ± 0.6 %ID/g
[1]; bone, 37 kBq, 3 h (No Lys), Table S4 study, read-out: Bone
  tissue uptake at 3 h: 0.62 ± 0.24 %ID/g
[1]; bone, 1 h, DL-lysine co-administered, read-out: Bone
  tissue uptake at 1 h: 1.48 ± 0.34 %ID/g
[1]; bone, 3 h (Blocking): 10 nmol unlabeled PSC-PEG2-TOC co-administered, read-out: Bone
  tissue uptake at 3 h: 0.16 ± 0.1 %ID/g
[1]; bone, 3 h, DL-lysine co-administered, read-out: Bone
  tissue uptake at 3 h: 0.48 ± 0.05 %ID/g
[1]; bone, DL-lysine co-administered, read-out: Bone
  tissue uptake at 6 h: 0.35 ± 0.06 %ID/g
[1]; bone, 24 h, DL-lysine co-administered, read-out: Bone
  tissue uptake at 24 h: 0.16 ± 0.04 %ID/g
[1]; brain, 37 kBq, 1 h post-administration, read-out: Brain
  tissue uptake at 1 h: 0.04 ± 0.01 %ID/g
[1]; brain, 37 kBq, 3 h (No Lys), Table S4 study, read-out: Brain
  tissue uptake at 3 h: 0.08 ± 0.06 %ID/g
[1]; brain, 37 kBq, 3 h post-administration, read-out: Brain
  tissue uptake at 3 h: 0.02 %ID/g
[1]; brain, 37 kBq, 24 h post-administration, read-out: Brain
  tissue uptake at 24 h: 0.01 %ID/g
[1]; brain, 1 h, DL-lysine co-administered, read-out: Brain
  tissue uptake at 1 h: 0.04 ± 0.01 %ID/g
[1]; brain, 3 h (Blocking): 10 nmol unlabeled PSC-PEG2-TOC co-administered, read-out: Brain
  tissue uptake at 3 h: 0.03 ± 0.01 %ID/g
[1]; brain, 3 h, DL-lysine co-administered, read-out: Brain
  tissue uptake at 3 h: 0.03 ± 0.01 %ID/g
[1]; brain, DL-lysine co-administered, read-out: Brain
  tissue uptake at 6 h: 0.02 %ID/g
[1]; brain, 24 h, DL-lysine co-administered, read-out: Brain
  tissue uptake at 24 h: 0.01 %ID/g
[1]; heart, 37 kBq, 1 h post-administration, read-out: Heart
  tissue uptake at 1 h: 0.2 ± 0.05 %ID/g
[1]; heart, 37 kBq, 3 h (No Lys), Table S4 study, read-out: Heart
  tissue uptake at 3 h: 0.2 ± 0.13 %ID/g
[1]; heart, 37 kBq, 3 h post-administration, read-out: Heart
  tissue uptake at 3 h: 0.08 ± 0.02 %ID/g
[1]; heart, 37 kBq, 24 h post-administration, read-out: Heart
  tissue uptake at 24 h: 0.03 ± 0.01 %ID/g
[1]; heart, 1 h, DL-lysine co-administered, read-out: Heart
  tissue uptake at 1 h: 0.28 ± 0.08 %ID/g
[1]; heart, 3 h (Blocking): 10 nmol unlabeled PSC-PEG2-TOC co-administered, read-out: Heart
  tissue uptake at 3 h: 0.07 ± 0.03 %ID/g
[1]; heart, 3 h, DL-lysine co-administered, read-out: Heart
  tissue uptake at 3 h: 0.15 ± 0.03 %ID/g
[1]; heart, DL-lysine co-administered, read-out: Heart
  tissue uptake at 6 h: 0.07 ± 0.05 %ID/g
[1]; heart, 24 h, DL-lysine co-administered, read-out: Heart
  tissue uptake at 24 h: 0.03 ± 0.01 %ID/g
[1]; kidneys, 37 kBq, 1 h post-administration, read-out: Kidneys
  tissue uptake at 1 h: 20.6 %ID/g
[1]; kidneys, 37 kBq, 3 h (No Lys), Table S4 study, read-out: Kidneys
  tissue uptake at 3 h: 22.1 ± 1.92 %ID/g
[1]; kidneys, 37 kBq, 3 h post-administration, read-out: Kidneys
  tissue uptake at 3 h: 15.8 ± 1.11 %ID/g
[1]; kidneys, 37 kBq, 24 h post-administration, read-out: Kidneys
  tissue uptake at 24 h: 1.5 %ID/g
[1]; kidneys, 1 h, DL-lysine co-administered, read-out: Kidneys
  tissue uptake at 1 h: 13.3 ± 3.8 %ID/g
[1]; kidneys, 3 h (Blocking): 10 nmol unlabeled PSC-PEG2-TOC co-administered, read-out: Kidneys
  tissue uptake at 3 h: 40.9 ± 9.92 %ID/g
[1]; kidneys, 3 h, DL-lysine co-administered, read-out: Kidneys
  tissue uptake at 3 h: 9.84 ± 0.88 %ID/g
[1]; kidneys, DL-lysine co-administered, read-out: Kidneys
  tissue uptake at 6 h: 5.44 ± 0.63 %ID/g
[1]; kidneys, 24 h, DL-lysine co-administered, read-out: Kidneys
  tissue uptake at 24 h: 1.25 ± 0.86 %ID/g
[1]; large intestine, 37 kBq, 1 h post-administration, read-out: Large intestine
  tissue uptake at 1 h: 1.24 ± 0.12 %ID/g
[1]; large intestine, 37 kBq, 3 h (No Lys), Table S4 study, read-out: Large intestine
  tissue uptake at 3 h: 1.92 ± 0.56 %ID/g
[1]; large intestine, 37 kBq, 3 h post-administration, read-out: Large intestine
  tissue uptake at 3 h: 6.32 ± 0.68 %ID/g
[1]; large intestine, 37 kBq, 24 h post-administration, read-out: Large intestine
  tissue uptake at 24 h: 0.83 ± 0.45 %ID/g
[1]; large intestine, 1 h, DL-lysine co-administered, read-out: Large intestine
  tissue uptake at 1 h: 1.99 ± 0.31 %ID/g
[1]; large intestine, 3 h (Blocking): 10 nmol unlabeled PSC-PEG2-TOC co-administered, read-out: Large intestine
  tissue uptake at 3 h: 0.99 ± 0.46 %ID/g
[1]; large intestine, 3 h, DL-lysine co-administered, read-out: Large intestine
  tissue uptake at 3 h: 3.97 ± 0.97 %ID/g
[1]; large intestine, DL-lysine co-administered, read-out: Large intestine
  tissue uptake at 6 h: 3.34 ± 0.63 %ID/g
[1]; large intestine, 24 h, DL-lysine co-administered, read-out: Large intestine
  tissue uptake at 24 h: 1.01 ± 0.67 %ID/g
[1]; liver, 37 kBq, 1 h post-administration, read-out: Liver
  tissue uptake at 1 h: 0.36 ± 0.05 %ID/g
[1]; liver, 37 kBq, 3 h (No Lys), Table S4 study, read-out: Liver
  tissue uptake at 3 h: 0.31 ± 0.03 %ID/g
[1]; liver, 37 kBq, 3 h post-administration, read-out: Liver
  tissue uptake at 3 h: 0.23 ± 0.02 %ID/g
[1]; liver, 37 kBq, 24 h post-administration, read-out: Liver
  tissue uptake at 24 h: 0.08 ± 0.04 %ID/g
[1]; liver, 1 h, DL-lysine co-administered, read-out: Liver
  tissue uptake at 1 h: 0.44 ± 0.08 %ID/g
[1]; liver, 3 h (Blocking): 10 nmol unlabeled PSC-PEG2-TOC co-administered, read-out: Liver
  tissue uptake at 3 h: 0.3 ± 0.07 %ID/g
[1]; liver, 3 h, DL-lysine co-administered, read-out: Liver
  tissue uptake at 3 h: 0.25 ± 0.05 %ID/g
[1]; liver, DL-lysine co-administered, read-out: Liver
  tissue uptake at 6 h: 0.17 ± 0.02 %ID/g
[1]; liver, 24 h, DL-lysine co-administered, read-out: Liver
  tissue uptake at 24 h: 0.06 ± 0.01 %ID/g
[1]; lung, 37 kBq, 1 h post-administration, read-out: Lung
  tissue uptake at 1 h: 3.58 ± 1.64 %ID/g
[1]; lung, 37 kBq, 3 h (No Lys), Table S4 study, read-out: Lung
  tissue uptake at 3 h: 4.61 ± 3.75 %ID/g
[1]; lung, 37 kBq, 3 h post-administration, read-out: Lung
  tissue uptake at 3 h: 0.38 ± 0.07 %ID/g
[1]; lung, 37 kBq, 24 h post-administration, read-out: Lung
  tissue uptake at 24 h: 1.46 ± 0.4 %ID/g
